First the molecules themselves.
T1: mouse CD40 (mCD40) on transfected CHO cells (mouse, UniProt P27512 20-289)
T1 sequence: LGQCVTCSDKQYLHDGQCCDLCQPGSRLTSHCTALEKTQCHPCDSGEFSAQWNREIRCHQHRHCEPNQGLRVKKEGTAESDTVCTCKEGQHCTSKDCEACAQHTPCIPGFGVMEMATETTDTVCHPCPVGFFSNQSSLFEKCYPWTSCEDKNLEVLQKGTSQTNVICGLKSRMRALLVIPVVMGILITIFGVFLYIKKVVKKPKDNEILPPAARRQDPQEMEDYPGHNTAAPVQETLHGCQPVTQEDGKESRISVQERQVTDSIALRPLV

T2: monkey (rhesus macaque) CD40 (rmCD40) on transfected CHO cells (rhesus macaque, UniProt P25942 21-277 (human entry))
T2 construct: also called monkey CD40
T2 chain: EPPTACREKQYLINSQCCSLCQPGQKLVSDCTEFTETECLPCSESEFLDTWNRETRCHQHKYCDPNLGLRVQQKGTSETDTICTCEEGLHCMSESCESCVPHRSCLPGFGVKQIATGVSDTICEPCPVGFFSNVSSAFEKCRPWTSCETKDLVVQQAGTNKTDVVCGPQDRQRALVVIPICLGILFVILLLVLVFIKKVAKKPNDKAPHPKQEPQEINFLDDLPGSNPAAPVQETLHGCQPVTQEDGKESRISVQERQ

B1: mouse anti-hCD40 antibody 06-6A7 (antibody, V domains shown)
VH: QVQLQQPGAELVKPGASVKLSCKASGYTFISYYIYWVKQRPGQGLEWIGGINPRNGGTNFNEKFKSKATLTVDKSSSTAYMQLSSLTSEDSAVYYCTRHGNGVYWGQGTTLTVSS
VL: DVVMTQTPLSLPVSLGDQASISCRSSQSLLHSNGNTYLHWYLQKPGQSPNHLIYQVSNRFSGVPDRFSGSGSGTDFTLKISRVEAEDLGVYFCSQTTHVPWTFGGGTKLEIK
notes: Mouse antibody purified from ascites
B2: mouse anti-hCD40 antibody 03-7F10 (antibody, V domains shown)
VH: EVKLVESGGGLVQPGGSLKLSCATSGFTFSDYYMYWVRQTPEKRLEWVAYISYGGDSTFYPDTVRGRFTISRDNAKNALYLQMSRLKSEDTAVYYCARPAPSAHSYYLDYWGQGTTLTVSS
VL: DIQMTQTTSSLSASLGDRVTISCRASQDISNYLNWYQQKPDGTVKLLIYYTSRLHSGLPSRFSGSGSGTDYSLTISNLEQEDIATYYCQQGKTLPFTFASGTKLEIK
notes: as for B1
B3: mouse anti-hCD40 antibody 07-4H6 (antibody, V domains shown)
VH: EVKLQESGPSLVKPSQTLSLTCSVTGDSVSSGYWNWIRKFPGNKLEYMGFISYSGSTYYTPSLKSRISITRDTSKNQFYLQLNSVTTEDTATYFCARFRRYDDGVDYWGQGTTLTVSS
VL: DIQMTQSPSSLSASLGERVSLTCRASHEISGYLSWIQQKPDGTIKRLINAASTLASGVPKRFSGSRSGSEYSLTINSLESEDFADYYCLQYSSYPWTFGGGTKLEIK
notes: as for B1

The first assay has as its target T3, human CD40 (hCD40) on transiently transfected CHO cells (human, UniProt P25942 21-277).
T3 construct: also called TNF Receptor Superfamily Member 5; TNFRSF5
The assay is described as follows: flow cytometry, CHO cells with hCD40, antibody titrated then hCD40L-hFc added (blocked ligand: hCD40L-hFc); y: hCD40 Ligand-hFc, x: Anti-mouse-IgG-Fc-PE. As to the method:
The anti-hCD40 antibodies were collected from mouse ascites fluid and purified by chromatography. 25 μl CHO cells transiently transfected with human CD40 were added to each well in a plate. The purified antibodies were titrated to final concentrations of 50, 5, 0.5, 0.05, and 0.005 μg/ml. The titrated antibodies were added to each well at 25 μl per well at 4° C. and incubated for 30 minutes.
hCD40 ligand-hFc was expressed by H293T cells. 50 μl of hCD40L-hFc was added to each well (1:500). The cells with hCD40L-hFc and the antibodies were incubated at 4° C. for 15 minutes.
After being washed with phosphate-buffered saline (PBS) twice, 50 μl of PE labeled anti-mouse IgG Fc antibody (anti-mIgG Fc-PE) at 1:500 dilution and FITC-labeled anti-human IgG Fc antibody (anti-hIgG Fc-FITC) at 1:100 dilution were added into each well, and incubated for 30 minutes at 4° C., followed by PBS wash. The signals for FITC and PE were determined by flow cytometry.
A general note: In flow cytometry, cells or beads pass a laser one at a time.
As for B1, the “% cells lower left (ligand- / antibody-) at 0.005µg/mL” value turned out to be 41.2%, the “% cells lower left (ligand- / antibody-) at 0.05µg/mL” value worked out at 14.9%, the “% cells lower left (ligand- / antibody-) at 0.5µg/mL” value worked out at 3.18% and the “% cells lower left (ligand- / antibody-) at 5µg/mL” value came out at 6.37%. The “% cells lower left (ligand- / antibody-) at 50µg/mL” value was 7.92%, the “% cells lower right (ligand- / antibody+) at 0.005µg/mL” value is 4.1%, the “% cells lower right (ligand- / antibody+) at 0.05µg/mL” value was 31.6% and the “% cells lower right (ligand- / antibody+) at 0.5µg/mL” value was determined as 45.1%. Also, the “% cells lower right (ligand- / antibody+) at 5µg/mL” value came out at 67.8%, the “% cells lower right (ligand- / antibody+) at 50µg/mL” value worked out at 69.7%, the “% cells upper left (ligand+ / antibody-) at 0.005µg/mL” value came to 1.44% and the “% cells upper left (ligand+ / antibody-) at 0.05µg/mL” value was 0%. Besides, the “% cells upper left (ligand+ / antibody-) at 0.5µg/mL” value turned out to be 0%, the “% cells upper left (ligand+ / antibody-) at 5µg/mL” value was found to be 0%, the “% cells upper left (ligand+ / antibody-) at 50µg/mL” value was 0.108% and the “% cells upper right (ligand+ / antibody+) at 0.005µg/mL” value is 53.2%. Also, the “% cells upper right (ligand+ / antibody+) at 0.05µg/mL” value was 53.5%, the “% cells upper right (ligand+ / antibody+) at 0.5µg/mL” value stood at 51.7%, the “% cells upper right (ligand+ / antibody+) at 5µg/mL” value was 25.9% and the “% cells upper right (ligand+ / antibody+) at 50µg/mL” value turned out to be 22.3%.

In the case of B2, the “% cells lower left (ligand- / antibody-) at 0.005µg/mL” value is 42.7%, the “% cells lower left (ligand- / antibody-) at 0.05µg/mL” value stood at 9.95%, the “% cells lower left (ligand- / antibody-) at 0.5µg/mL” value was found to be 7.02% and the “% cells lower left (ligand- / antibody-) at 5µg/mL” value was 12.9%. The “% cells lower left (ligand- / antibody-) at 50µg/mL” value turned out to be 12.8%, the “% cells lower right (ligand- / antibody+) at 0.005µg/mL” value amounted to 1.99%, the “% cells lower right (ligand- / antibody+) at 0.05µg/mL” value was found to be 32.1% and the “% cells lower right (ligand- / antibody+) at 0.5µg/mL” value was 47.7%. Besides, the “% cells lower right (ligand- / antibody+) at 5µg/mL” value turned out to be 78.8%, the “% cells lower right (ligand- / antibody+) at 50µg/mL” value turned out to be 78.1%, the “% cells upper left (ligand+ / antibody-) at 0.005µg/mL” value was found to be 4.03% and the “% cells upper left (ligand+ / antibody-) at 0.05µg/mL” value amounted to 0%. Besides, the “% cells upper left (ligand+ / antibody-) at 0.5µg/mL” value turned out to be 0.056%, the “% cells upper left (ligand+ / antibody-) at 5µg/mL” value stood at 0%, the “% cells upper left (ligand+ / antibody-) at 50µg/mL” value is 0% and the “% cells upper right (ligand+ / antibody+) at 0.005µg/mL” value came out at 51.3%. Also, the “% cells upper right (ligand+ / antibody+) at 0.05µg/mL” value stood at 57.9%, the “% cells upper right (ligand+ / antibody+) at 0.5µg/mL” value was determined as 45.2%, the “% cells upper right (ligand+ / antibody+) at 5µg/mL” value came out at 8.35% and the “% cells upper right (ligand+ / antibody+) at 50µg/mL” value is 9.09%.

Take B3: the “% cells lower left (ligand- / antibody-) at 0.005µg/mL” value was 35.7%, the “% cells lower left (ligand- / antibody-) at 0.05µg/mL” value was 16.8%, the “% cells lower left (ligand- / antibody-) at 0.5µg/mL” value stood at 11.1% and the “% cells lower left (ligand- / antibody-) at 5µg/mL” value was found to be 11.4%. Besides, the “% cells lower left (ligand- / antibody-) at 50µg/mL” value turned out to be 7.76%, the “% cells lower right (ligand- / antibody+) at 0.005µg/mL” value worked out at 3.7%, the “% cells lower right (ligand- / antibody+) at 0.05µg/mL” value is 26.9% and the “% cells lower right (ligand- / antibody+) at 0.5µg/mL” value was 63.6%. Moreover, the “% cells lower right (ligand- / antibody+) at 5µg/mL” value was found to be 80.8%, the “% cells lower right (ligand- / antibody+) at 50µg/mL” value came to 83.7%, the “% cells upper left (ligand+ / antibody-) at 0.005µg/mL” value amounted to 1.95% and the “% cells upper left (ligand+ / antibody-) at 0.05µg/mL” value turned out to be 0%. For the same molecule, the “% cells upper left (ligand+ / antibody-) at 0.5µg/mL” value was 0%, the “% cells upper left (ligand+ / antibody-) at 5µg/mL” value was determined as 0%, the “% cells upper left (ligand+ / antibody-) at 50µg/mL” value is 0.185% and the “% cells upper right (ligand+ / antibody+) at 0.005µg/mL” value was found to be 58.7%. Further, the “% cells upper right (ligand+ / antibody+) at 0.05µg/mL” value stood at 56.4%, the “% cells upper right (ligand+ / antibody+) at 0.5µg/mL” value came out at 25.4%, the “% cells upper right (ligand+ / antibody+) at 5µg/mL” value is 7.75% and the “% cells upper right (ligand+ / antibody+) at 50µg/mL” value amounted to 8.32%.

In a further assay the target is T1, mouse CD40 (mCD40) on transfected CHO …. The assay is described as follows: flow cytometry, CHO-mCD40 cells, anti-mIgG Fc-FITC. As to the method: (§1) 25 μl CHO cells were added to each well. 25 μl purified anti-hCD40 antibodies (1 μg/ml) (7F10, 6A7, or 4H6) were added to each well and were incubated at 4° C. for 30 minutes.
(§2) After being washed with PBS (1200 rmp, 5 min) twice, 50 μl of FITC labeled anti-mouse IgG Fc antibody (anti-mIgG Fc-FITC) was added into each well 1:100 dilution, followed by incubated at 4° C. for 30 minutes, and then PBS wash (1200 rmp, 5 min). The signals for FITC were detected by flow cytometry.
Consider B1, for which the binding result is given as “no binding”.

For B2, the binding result was “no binding”.

B3: the binding result was “no binding”.

Another assay has the same target. The assay is described as follows: flow cytometry, CHO-mCD40 cells, antibody 1 µg/ml, anti-mIgG Fc-FITC; x: Anti-mouse-IgG-Fc-FITC, y: SSC-H. Here is the method: as §1, §2
B1: the “% cells in the Anti-mouse-IgG-Fc-FITC positive gate” value was found to be 1.16%.

Take B2: the “% cells in the Anti-mouse-IgG-Fc-FITC positive gate” value was 0.674%.

B3: the “% cells in the Anti-mouse-IgG-Fc-FITC positive gate” value came out at 1.56%.

The next assay deals with T2, monkey (rhesus macaque) CD40 (rmCD40) …. The assay is described as follows: flow cytometry, CHO-rmCD40 cells, antibody 1 µg/ml, anti-mIgG Fc-FITC; x: Anti-mouse-IgG-Fc-FITC, y: SSC-H. As to the method:
as §1, §2
Take B1: the “% cells in the Anti-mouse-IgG-Fc-FITC positive gate” value amounted to 96.4%.

In the case of B2, the “% cells in the Anti-mouse-IgG-Fc-FITC positive gate” value was found to be 82.6%.

Take B3: the “% cells in the Anti-mouse-IgG-Fc-FITC positive gate” value worked out at 88.5%.

A further assay deals with T4, chimeric (mouse and human) CD40 (chiCD40) on transfected CHO cells (chimeric (mouse and human)).
T4 construct: also called human-mouse chimeric CD40; chimeric CD40
The assay is described as follows: flow cytometry, CHO-chiCD40 cells, antibody 1 µg/ml, anti-mIgG Fc-FITC; x: Anti-mouse-IgG-Fc-FITC, y: SSC-H. As to the method: as §1, §2
For the molecule B1, the “% cells in the Anti-mouse-IgG-Fc-FITC positive gate” value stood at 94.6%.

As to B2, the “% cells in the Anti-mouse-IgG-Fc-FITC positive gate” value came out at 82.4%.

For the molecule B3, the “% cells in the Anti-mouse-IgG-Fc-FITC positive gate” value was 87.8%.

The record behind these values is US20250034271A1 (EUCURE BEIJING BIOPHARMA, published 2025).
